Measured values from patent publication US9616120B2, “Monoclonal antibodies directed to CD20” (VET THERAPEUTICS, INC., priority 2010, dated 2017).

T1: recombinant canine CD20 expressed in CHO cells (Canis lupus familiaris, UniProt Q3C2E2, A201T/C77Y/G273E/L198V)
T1 construct: are transfected with an expression vector encoding the full-length canine CD20 protein; expressed in transfected cells; host or cells: CHO cells (CHO-DG44)
T1 sequence (Q3C2E2 1-297 C77Y/L198V/A201T/G273E): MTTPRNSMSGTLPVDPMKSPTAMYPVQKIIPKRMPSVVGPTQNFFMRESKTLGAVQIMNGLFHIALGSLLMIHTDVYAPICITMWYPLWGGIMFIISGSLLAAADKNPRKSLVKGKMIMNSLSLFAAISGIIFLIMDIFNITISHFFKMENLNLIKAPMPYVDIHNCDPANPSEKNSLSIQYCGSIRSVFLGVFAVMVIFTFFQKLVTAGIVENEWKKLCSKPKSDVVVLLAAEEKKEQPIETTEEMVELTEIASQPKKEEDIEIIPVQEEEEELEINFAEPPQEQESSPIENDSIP

T2: recombinant canine CD20 (Canis lupus familiaris, UniProt Q3C2E2, A201T/C77Y/G273E/L198V)
T2 construct: are transfected with an expression vector encoding the full-length canine CD20 protein; expressed in transfected cells; host or cells: CHO cells (CHO-DG44)
T2 sequence (Q3C2E2 1-297 C77Y/L198V/A201T/G273E): T1 sequence (Q3C2E2 1-297 C77Y/L198V/A201T/G273E)

T3: recombinant canine CD20 expressed in HEK cells (Canis lupus familiaris, UniProt Q3C2E2, A201T/C77Y/G273E/L198V)
T3 construct: expressed in transfected cells; host or cells: HEK cells
T3 sequence (Q3C2E2 1-297 C77Y/L198V/A201T/G273E): T1 sequence (Q3C2E2 1-297 C77Y/L198V/A201T/G273E)

B1: CD20-5: anti-canine CD20 antibody; full length HC SEQ ID NO. 40, LC SEQ ID NO. 41 (antibody)
heavy: QVQLKQSGAELVKPGASVKISCKASGYTFTDYYINWVKQRPGQGLEWIGKIGPRSGSIYYNEKFKGKATLTADKSSSTAYMQLRSLTSEDSAVYFCAVLKWGQGTLVTVSSASTTAPSVFPLAPSCGSQSGSTVALACLVSGYFPEPVTVSWNSGSLTSGVHTFPSVLQSSGLYSLSSMVTVPSSRWPSETFTCNVAHPASKTKVDKPVPKRENGRVPRPPDCPKCPAPEMLGGPSVFIFPPKPKDTLLIARTPEVTCVVVDLDPEDPEVQISWFVDGKQMQTAKTQPREEQFNGTYRVVSVLPIGHQDWLKGKQFTCKVNNKALPSPIERTISKARGQAHQPSVYVLPPSREELSKNTVSLTCLIKDFFPPDIDVEWQSNGQQEPESKYRTTPPQLDEDGSYFLYSKLSVDKSRWQRGDTFICAVMHEALHNHYTQKSLSHSPGK
light: DAVMTQIPLTLSVTIGQPASISCKSSQSLLHSDGKTYLNWLLQRPGQSPKRLIYLVSKLDSGVPDRFTGSGSGTDFTLKISRVEAEDLGVYYCWQGTHFPQTFGGGTHLTVLGQPKASPSVTLFPPSSEELGANKATLVCLISDFYPSGVTVAWKADGSPITQGVETTKPSKQSNNKYAASSYLSLTPDKWKSHSSFSCLVTHEGSTVEKKVAPAECS
modifications: canis familiaris/mus musculus
notes: anti-canine CD20 antibody; 41
B2: CD20-2: anti-canine CD20 antibody; full length HC SEQ ID NO. 38, LC SEQ ID NO. 39 (antibody)
heavy: QVQLQQSRAELVRPGASVTLSCKPSGYTFTDYEVHWVKQTPVHGLEWIGAIDPETGGTADNQKFKGKAILTADKSSSTAYMELRSLTSEDSAVYYCTNFVDVWGTGTTVTVSSASTTAPSVFPLAPSCGSQSGSTVALACLVSGYFPEPVTVSWNSGSLTSGVHTFPSVLQSSGLYSLSSMVTVPSSRWPSETFTCNVAHPASKTKVDKPVPKRENGRVPRPPDCPKCPAPEMLGGPSVFIFPPKPKDTLLIARTPEVTCVVVDLDPEDPEVQISWFVDGKQMQTAKTQPREEQFNGTYRVVSVLPIGHQDWLKGKQFTCKVNNKALPSPIERTISKARGQAHQPSVYVLPPSREELSKNTVSLTCLIKDFFPPDIDVEWQSNGQQEPESKYRTTPPQLDEDGSYFLYSKLSVDKSRWQRGDTFICAVMHEALHNHYTQKSLSHSPGK
light: DVVMSQSPSSLAVSVGEKVTMSCKSSQSLLYSGNQKNYLAWYQQKPGQSPRLLIYWASTRESGVPDRFTGSGSGTDFTLTISSVKAEDLAVFYCQQYYNYPLTFGGGTHLTVLGQPKASPSVTLFPPSSEELGANKATLVCLISDFYPSGVTVAWKADGSPITQGVETTKPSKQSNNKYAASSYLSLTPDKWKSHSSFSCLVTHEGSTVEKKVAPAECS
modifications: canis familiaris/mus musculus
notes: anti-canine CD20 antibody; 39

What was measured:
canine B cells = conditions: Veterinary Journal, 2006, vol 171, 556; cited from earlier work
[1] = molecular target: T1, recombinant canine CD20 expressed in CHO cells; test: Binding affinity to recombinant canine CD20 expressed in CHO cells by FACS; conditions: CHO cells expressing canine CD20
Procedure: The antibody variants of the present invention are compared for their binding affinity to canine CD20. Binding affinity is assessed by measuring binding to the recombinant canine CD20 expressed in CHO cells by FACS analysis as described above.

recombinant canine CD20 = molecular target: T2, recombinant canine CD20; test: Competition experiments (epitope mapping) on CHO cells expressing recombinant canine CD20; assay type: binding; conditions: unlabelled competitor 25 μg/mL; for percentage of inhibition (PI), labeled antibody CD20-1: biotin-labeled CD20-1 2 μg/mL; for percentage of inhibition (PI), labeled antibody CD20-2: biotin-labeled CD20-2 2 μg/mL; for percentage of inhibition (PI), labeled antibody CD20-5: biotin-labeled CD20-5 2 μg/mL
Procedure: Competition experiments are performed using standard techniques. Briefly, biotinylated recombinant anti-canine CD20 antibodies are titrated on CHO cells expressing recombinant canine CD20. Cells are first incubated with an excess of unlabelled recombinant anti-canine CD20 antibody (25 μg/mL). Thereafter, cells are incubated with a biotin-labeled antibody at 2 μg/mL. After washing, cells are incubated with streptavidin- phycoerythrin and fluorescence is analyzed by flow cytometry. An irrelevant antibody is used as negative control for inhibition. Results are expressed as a ratio between fluorescence intensity of the cells pre-incubated with the unlabelled antibody and the fluorescence intensity obtained for each biotinylated antibody alone. The percentage of inhibition (PI) is calculated by the following formula: PI=[1−(Experimental-Background)/Biotinylated antibody alone−Background)]×100%.

[2] = molecular target: T3, recombinant canine CD20 expressed in HEK cells; test: FACS binding to cells expressing recombinant canine CD20; conditions: for mean fluorescence, Canine CD20: antibody 2.5 μg/mL
Procedure: (§1) The binding of the antibody variants of the present invention raised to canine CD20 can be assessed by FACS analysis for their binding to feline CD20 according to standard immunological techniques (see Veterinary Immunology and Immunopathology 2005, 106:179-196; Brousseau et al., Manual of Immunology Methods, CRC Press, 1998). In the present example, the antibody variants (2.5 μg/mL) are incubated with mammalian cells expressing the recombinant feline CD20 or canine CD20 or control cells. The amount of bound antibody is assessed by detection with a fluorescent-labeled reporter antibody reagent. Several controls are utilized to determine the background fluorescence: (i) CD20 expressing cells are incubated with the conjugated secondary antibody with an isotype antibody, and (ii) Control cells are incubated with the anti-CD20 antibodies.

Control Cells = test: FACS binding to control cells; conditions: antibody 2.5 μg/mL
Procedure: In the present example, the antibody variants (2.5 μg/mL) are incubated with mammalian cells expressing the recombinant feline CD20 or canine CD20 or control cells. The amount of bound antibody is assessed by detection with a fluorescent-labeled reporter antibody reagent. Several controls are utilized to determine the background fluorescence: (i) CD20 expressing cells are incubated with the conjugated secondary antibody with an isotype antibody, and (ii) Control cells are incubated with the anti-CD20 antibodies.

[3] = test system: feline CD20 expressed in mammalian cells; test: FACS binding to cells expressing recombinant feline CD20; conditions: for mean fluorescence, Feline CD20: antibody 2.5 μg/mL; for binding to feline CD20 (in words): mammalian cells
Procedure: as §1

[4] = test system: B lymphocyte cell population; test: Depletion of B cells in vivo (CD21 flow cytometry); design: species or system beagle dogs; conditions: three consecutive doses 2.4 mg/kg to 5.0 mg/kg
Procedure: Three beagle dogs receive three consecutive dosages of the antibody CD20-2 (VET305) ranging from […] to 5.0 mg/kg every 5 days. Blood samples drawn at several time points are centrifuged at 2000 RPM for 5 min. Plasma is removed for assay of the antibody levels. The pellet containing peripheral blood leukocytes and red blood cells is resuspended in a plasma equivalent volume of phosphate saline solution (Dulbecco's Phosphate-Buffered Saline, Mediatech, Cat No. 21-030-CM) for quantitation of lymphocyte populations by flow cytometry. A 0.1 mL volume of the cell preparation is distributed into micro-centrifuge tubes. Labeled monoclonal antibody with specificity for the canine lymphocyte surface marker CD21 is added to the vial to identify the B lymphocyte cell population. An additional sample is included with no reagents for determination of autofluorescence. Cells are incubated with the fluorescent antibody for 30 min. Red blood cell were then lyzed for 15 min using a lysis buffer (Red Blood Cell Lysis Buffer, Biolegend,Cat No. 420301) and then washed prior to analysis on a Becton Dickinson FACS instrument.

[5] = Tolerability of weekly dosing; assay type: in vivo; conditions: weekly dose over 4 weeks
[6] = Half-life of recombinant anti-canine CD20 antibody in beagle dogs (plasma ELISA); assay type: in vivo
Procedure: The half-life of the recombinant anti-canine CD20 antibody are assessed. In this example, the half-life of antibody CD20-2 (VET305) is assessed by dosing beagle dogs intravenously. Blood is collected for analysis of CD20-2 in plasma samples harvested as whole blood treated with Ethylenediaminetetraacetic acid (EDTA) as the anticoagulant. An enzyme linked immunosorbant assay (ELISA) method is utilized to determine the plasma antibody concentrations. In this assay, a 96-well plate is coated with a rabbit polyclonal antibody raised to the variable domain of the antibody CD20-2. The antibody CD20-2 in standards or in samples is captured by the polyclonal antibody and is detected by an enzyme conjugated anti-dog secondary antibody. A non-linear regression fit of the standards is used to determine the recombinant antibody concentrations in plasma.

[7] = multiple doses 2.0 to 5.0 mg/kg

Chain of feline CD20 expressed in mammalian cells (as listed by the source): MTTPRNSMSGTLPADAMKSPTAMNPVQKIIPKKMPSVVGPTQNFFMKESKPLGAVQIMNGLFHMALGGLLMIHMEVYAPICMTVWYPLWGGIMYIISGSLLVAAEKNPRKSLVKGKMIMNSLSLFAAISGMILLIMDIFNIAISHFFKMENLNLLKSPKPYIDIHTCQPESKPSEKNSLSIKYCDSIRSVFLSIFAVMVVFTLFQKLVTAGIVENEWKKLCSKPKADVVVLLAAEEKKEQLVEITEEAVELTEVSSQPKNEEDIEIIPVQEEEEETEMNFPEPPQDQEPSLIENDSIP

Molecule | reactivity with canine B cells (canine B cells) | Kd [1] [nM] | percentage of inhibition (PI), labeled antibody CD20-1 (recombinant canine CD20) [%] | percentage of inhibition (PI), labeled antibody CD20-2 (recombinant canine CD20) [%] | percentage of inhibition (PI), labeled antibody CD20-5 (recombinant canine CD20) [%] | binding to recombinant canine CD20 (in words) [2] | mean fluorescence, Canine CD20 [2] [mean fluorescence units] | mean fluorescence, Control Cells (Control Cells) [mean fluorescence units] | mean fluorescence, Feline CD20 [3] [mean fluorescence units] | binding to feline CD20 (in words) [3] | duration of depletion after the last dose [4] | B lymphocyte cell percentage after treatment ([4]; every 5 days) | adverse effects on clinical and behavioral observations or body weights [5] | tolerability [5] | change of half-life values ([6]; consecutive administration) | elimination half life [6, 7] | plasma antibody concentrations (in words) [6, 7] | volume of distribution [6, 7] | plasma antibody concentrations (in words) ([6]; single dose 2.4 mg/kg)
Rituximab: a monoclonal antibody to the human CD20 antigen | does not react with canine B cells |  |  |  |  |  |  |  |  |  |  |  |  |  |  |  |  |  | 
B1 |  | 1.2 | 107.07 | 6.47 | 85.88 | effective binding | 2769 | 215 | 2048 | bind feline CD20 |  |  |  |  |  |  |  |  | 
B2 |  |  | 0.90 | 124.33 | 3.69 | effective binding | 2340 | 49 | 2209 | bind feline CD20 | at least 10 days | decrease in-B lymphocyte cell percentage | no adverse effects | well tolerated locally and systemically | increase after consecutive administration | one week | increases overtime and persists at significant levels | approximating plasma volume | high plasma antibody concentrations are achieved in all animals
